Source: the supplement of paper PMC9170038

Tested on: K4 kissing-loop RNA reporter
Test: apparent KD of K4 kissing-loop reporter; higher = weaker reporter binding
Details: Eterna round: R107; input ligand: arginine 13.2 mM
Description: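 RNA-MaP round R107: designed RNA switches with theophylline, tryptophan, arginine or FMN aptamers are transcribed on-chip within common flanks. They are titrated with a labelled K4 kissing-loop RNA reporter in RNA-MaP buffer (100 mM Tris pH 7.5, 80 mM KCl, 4 mM MgCl2), without ligand or with the indicated ligand. Median apparent KD per design.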
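Note: bound reporter read as fluorescence of individual clusters on recovered sequencing chips by microscopy, with normalized cluster intensities fitted with a binding model.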

Sequence | apparent KD of K4 kissing-loop reporter [nM]
GGUUGAAGCACCCGGAGUGAUGUUCCGGAUACCAGCAAACCAACUUGCCCUUGGCAGCCGUAUAGCGUCCGGUGGGCCGAGCAUA [Beisadi] | 90.3
UGACUGGACUGAAGGAGCGCGCGAGACAAAGUCUCGAACUCUUAGUGAUGUUAGGAAAUAACGCAGGUAGGUCGCAGUCUAGUCU | 247
CGGCGGAGUGAUGUUCUGCUCGCUCCGGAUACCAGCUUCGCCAGAGGCCCUUGGCAGCCGGGCGGCCCAGUGAUGUUGGGUUGCG [Same State Theophylline A GF 17] | 243
AACUCUCAGGCAGCCGAGUGAUGUUCGGCCCGAGGACCGGUACGGCCGCCACUCGGGCCUGAGAGAGGUUAUCAAAGAUAGCCAA [#01 K4 Tryptophan A Same State] | 75.2
GUACAUUGGAAACAAGAACAAAUAACCGAAGGAGCGCGUGAAAACGCAGGUAGGUCGCGGAAGCAGUGAUGUUGCAUUAGAGAUC [Same State Arginine A GF 16] | 103
CGGAGUGAUGUUCCUUUUAUUAAUUAUUUACGAGGACCGGUACGGCCGCCACUCGAUUUAGCUUUUAUUUAAUGCUUGGAUGUUU [JR_SSTryptoA_Sub004] | 212

Same assay, conditions: Eterna round: R107; input ligand: none

Sequence | apparent KD of K4 kissing-loop reporter [nM]
CGAGUACAUUGCGAUACCAGCGAUAGCAGUUCAACGCGCAGUCCGUUUAGUGAUGUUAGACGCCCUUGGCAGCGCUUCCUGGCAA [theeternabot_exclusion_KL_Theo_B_44] | 460
AUGCCUAUGACGGCCGCCACUGAGAGUCAGUGAUGUUGACUCGAUACAGCUGAUUAGCAGCUAAUCAGGACCGGGUCAUACACAU [Tryp B SS t3] | 244
UAGCGGUAGAGGCCACCGCUAUUCUGAGAAGGAGCGCAGAUGACUGCAGGUAGGUCGCUUAGAGCUUGCAGUGAUGUUGCAAGUU [Tebete] | 179
GGUUUUAACCGCAGUGAUGUUGCGUUGAAACGAGGACCGGUACGGCCGCCACUCGAAAAGAAGCGGCCAAAUUAAAAUCGUAAAG [Exclusion Tryptophan A GF 23] | 144
GCGAAGAGAGAAGGAUAUUAGUAAUGCGUCAUGCGCCCUUACCAGUUAGUGAUGUUAACAAUACAUUAAGAAGGUCUCGGAAUCC [theeternabot_sameState_KL_FMN_B_50] | 187
CUGUAUCAUAUUGAUACCAGAGAAAGAACCAGUGAUGUUGGAAAAGACGAAUAAAUUAUACUCCCUUGGCAGCGGAAAUGAACAG [Totally accidental] | 75.8
GACGUUGAAGCGGCCGCCACUAGGAAGGGUACGGAGAGUACAUCUCACGGAGAGUGAUGUUCUCAUAGGACCGGGCUCAUAUCAA [theeternabot_sameState_KL_Trp_B_21] | 605
AGUCCACUCUAAAGAGUGGACCUAAGGGAUACCAGUGAUGUUGGUCACCCUUGGCAGCCCUCUGUCAUCGAUAAAGAUGGCAGUA | 118
AAAAUAAACCAGUGAUGUUGGUGUCCAGAUACCAGCGACGAAAGUCGCCCUUGGCAGCUGUGGACGUACAAAAUAAGUACGUCCU | 356
UAAUUUAUGUCUUUAAUAUAAUAAUCAGAUACCAGUGAUUUAUGACACCCUUGGCAGCUGUAUAGAGUGAUGUUCUUAUACAUAA [JR_Nu_ExcTheophyA_Sub020] | 483
UGUCAUUGGUCGGCCGCCACUUCGUAUGAAGUGAUGUUUUGUAGAUUGUGUUGAAAGGUAUGGUGAAGGACCGGGACCGAUGACU [FiskerMod 22 - Jieux - Same State - Tryptophan B] | 765
AAGUGUCAUUAGACACACGCAUCUAUAAACUAGGAUAUGCUGAUAAGCAGAAGGAGUGAUGUUCCUUUCAUGAUGCGAAUUAAAU [#07 K4 FMN A Exclusion] | 113
GUCCAACCUGGAGGAUAUCUGCUGUCCAGUGAUGUUGGACACCUUAGUAAAGGCCGGGUAGCCCGCAGAGAAGGCCGGAGUUGCC [Isateron] | 429
AAGUGUGUGGCGGCCGCCACUAGAAUCCAGUGAUGUUGGAGAUAUCACGUAAGUGAUAUCCAUCAUAGGACCGGGCCAUAUAGAA [Same State - Tryptophan B (Freestyle 18)] | 945
GACAGUCGGUGUUAAUGACAGUUACGCGAUACCAGCGAAACAGUACGCCCUUGGCAGCGCAGUGAUGUUGCGCGCCUAGUGUGGU [Esbiceve] | 101
UUACUACCCAGUGAUGUUGGGUAGCGGCGGCGAGGACCGGUACGGCCGCCACUCGGCGCACGGGAGUGAUGUUCCUAAGAAUAAA [Same State Tryptophan A GF 9] | 335
AAUAACUUGCAGUGAUGUUGCAAGAAAUCUCAGGAUAUCAGGAAACUGAGAAGGGAGUAUCCUGAGUAAACAUCACAUCUUAGGA [KL-SSFMN-A8] | 399
AGUGAUGUUGUGUUAUCUUAGUGAAGUGAUCGAGGACCGGUACGGCCGCCACUCGAGUGAUGAGUGAGUGAUGUUUGUUUAGGGA [vvbmullin] | 1080
UGUCAUGGAAACAUGAACGUUAAAAUAAAUCGAGGACCGGUACGGCCGCCACUCGUAUAGCGGUCAGUGAUGUUGACUGUAGUAC [KL-SSTryp-A form2 sub11 #dotplot2>1] | 109
UUGUUUUACUGAAGGAGCGGCAAUUGAUACGUAGAUAUAGUGAUGUUAUAUAAGAUAGAGAGCCAGGUAGGUCGCAGAUGUGUUU [ExArgB.T] | 180
UGAUACCAGACGGCCGCCACUCCCGUAAGUCAAAGACUUACCAAGAGUAUCGUCCAGUGAUGUUGGAGGACCGGGUCUGGUAUCU [FiskerMod 9 - Jieux - Exclusion - Tryptophan B] | 330
